What was measured:
recombinant mouse FcRn [1] = target: T1, recombinant mouse FcRn (mouse, UniProt Q61559 22-297; P01887 21-119); assay: SPR, mouse FcRn immobilised; relative to mAb1
T1 sequence 1: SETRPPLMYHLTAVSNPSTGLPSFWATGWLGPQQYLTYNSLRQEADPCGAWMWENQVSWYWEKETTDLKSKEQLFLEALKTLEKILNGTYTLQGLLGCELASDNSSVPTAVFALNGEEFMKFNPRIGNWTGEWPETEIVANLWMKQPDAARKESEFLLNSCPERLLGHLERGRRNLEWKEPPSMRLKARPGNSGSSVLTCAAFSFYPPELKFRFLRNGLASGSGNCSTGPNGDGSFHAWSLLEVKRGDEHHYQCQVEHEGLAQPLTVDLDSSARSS
T1 sequence 2: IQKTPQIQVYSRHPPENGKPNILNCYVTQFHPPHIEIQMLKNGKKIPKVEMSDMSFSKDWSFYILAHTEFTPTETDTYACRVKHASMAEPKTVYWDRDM

[2] = target: T2, Recombinant human HPC4-tagged FcγRIII-F158 (human, UniProt P08637 17-208); assay: SPR (Biacore 3000), HPC4-tagged FcγRIII-F158 captured on anti-HPC4 CM5 chip, antibody injected 2 min, in duplicate; concentration (900, 300 or 100 nM in the methods) not printed on the sheet
T2 construct: also called FcγRIIIaF158; not shown: HPC4 tag
T2 sequence (P08637 17-208): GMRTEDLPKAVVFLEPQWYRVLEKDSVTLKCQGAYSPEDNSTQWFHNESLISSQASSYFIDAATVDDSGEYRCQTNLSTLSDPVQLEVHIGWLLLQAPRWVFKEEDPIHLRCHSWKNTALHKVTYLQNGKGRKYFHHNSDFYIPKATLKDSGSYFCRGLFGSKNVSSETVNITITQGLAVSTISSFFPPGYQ

[3] = target: T3, CHIKV 37997 strain, West African lineage (envelope protein E2 on virus) (Chikungunya virus); assay: cell-based or functional assay
[4] = target: T4, CHIKV La Reunion (LR) strain, ECSA lineage (envelope protein E2 on virus) (Chikungunya virus); assay: cell-based or functional assay
[5] = target: T5, CHIKV Caribbean strain, Asian lineage (envelope protein E2 on virus) (Chikungunya virus); assay: cell-based or functional assay
[6] = target: T3, CHIKV 37997 strain, West African …; assay: cell-based or functional assay; remark: listed apart in the source
[7] = target: T4, CHIKV La Reunion (LR) strain, ECSA …; assay: cell-based or functional assay; remark: listed apart in the source
[8] = target: T5, CHIKV Caribbean strain, Asian lineage …; assay: cell-based or functional assay; remark: listed apart in the source
recombinant mouse FcRn [9] = target: T1, recombinant mouse FcRn; assay: SPR (Biacore T200), mouse FcRn immobilised on CM5 chip
recombinant human FcRn [10] = target: T6, recombinant human FcRn (human, UniProt P55899 24-297; P61769 21-119); assay: SPR (Biacore T200), human FcRn immobilised on CM5 chip
T6 construct: also called human FcRn receptor
T6 sequence (P55899 24-297 limits assumed, chain 1 of 2): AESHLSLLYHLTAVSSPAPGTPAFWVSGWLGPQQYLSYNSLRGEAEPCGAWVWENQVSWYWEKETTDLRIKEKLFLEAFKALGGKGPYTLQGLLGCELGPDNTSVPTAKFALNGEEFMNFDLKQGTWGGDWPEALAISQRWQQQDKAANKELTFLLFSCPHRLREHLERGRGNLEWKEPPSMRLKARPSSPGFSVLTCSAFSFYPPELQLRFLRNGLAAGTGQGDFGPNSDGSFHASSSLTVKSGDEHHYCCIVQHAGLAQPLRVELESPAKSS
T6 sequence (P61769 21-119 limits assumed, chain 2 of 2): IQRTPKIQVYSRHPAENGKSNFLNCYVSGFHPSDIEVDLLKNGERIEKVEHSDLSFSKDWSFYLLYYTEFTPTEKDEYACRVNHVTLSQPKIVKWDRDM

Antigen (E2) = Antigen (E2) (Chikungunya virus); assay: SPR (Biacore T200), His-tagged antigen captured by anti-His antibody, 1:1 model
[11] = target: T7, Recombinant human HPC4-tagged FcγRIIIa-V158 (human, UniProt P08637 17-208); assay: SPR (Biacore 3000), HPC4-tagged FcγRIIIa-V158 captured on anti-HPC4 CM5 chip, antibody injected 2 min, in duplicate; concentration (900, 300 or 100 nM in the methods) not printed on the sheet
T7 construct: Valine at 158 is a polymorphism, named without an old residue; also called Val158; not shown: HPC4 tag
T7 sequence (P08637 17-208 F176V): as the sequence (P08637 17-208) above, with F160V counted along it

recombinant human FcRn [12] = target: T6, recombinant human FcRn; assay: SPR, human FcRn immobilised; relative to mAb1

B1: mAb7 (antibody)
heavy: not shown
light: QAVVTQPPSVSGAPGQRVTISCTGSSSNIGADYNVHWYQLLPGTAPKLLIYGNTNRPSGVPDRFSGSKSGTSASLAITGLQAEDEADYYCQSYDSSLSASVFGGGTKLTVLGQPKAAPSVTLFPPSSEELQANKATLVCLISDFYPGAVTVAWKADSSPVKAGVETTTPSKQSNNKYAASSYLSLTPEQWKSHRSYSCQVTHEGSTVEKTVAPTECS
notes: also called mAb1LS
- Affinity Increase (fold) (recombinant mouse FcRn [1]): 3.4 fold
- binding result [2]: binds
- EC50, plaque reduction neutralization [3]: < 1 ng/mL
- EC50, plaque reduction neutralization [4]: < 1 ng/mL
- EC50, plaque reduction neutralization [5]: < 1 ng/mL
- In vitro neutralization - EC50 (ng/ml), plaque reduction assay on Vero cells [6]: 0.2 ng/mL
- In vitro neutralization - EC50 (ng/ml), plaque reduction assay on Vero cells [7]: 0.3 ng/mL
- In vitro neutralization - EC50 (ng/ml), plaque reduction assay on Vero cells [8]: 0.6 ng/mL
- Kd (recombinant mouse FcRn [9]): 5.9 nM
- Kd (recombinant human FcRn [10]): 15 nM
- Kd (Antigen (E2)): 0.17 nM
- binding result [11]: binds
- Affinity Increase (fold) (recombinant human FcRn [12]): 23.8 fold

— US20180127487A1 (Sanofi, published 2018)
